{"source": "paper PMC11917138", "about": "“A naturally occurring standalone TrpB enzyme provides insights into allosteric communication within tryptophan synthase” (Protein Science : A Publication of the Protein Society, 2025)", "key": {"[1]": {"target": "plTrpB, tryptophan synthase β subunit (TrpB) from Pelodictyon luteolum (Pelodictyon luteolum)", "test": "activity titration; apparent Kd; varying plTrpA added to 2 μM plTrpB or plTrpB-con, TrpB reaction rate read at 290 nm; 30°C, 50 mM potassium phosphate pH 7.5, 180 mM KCl, 40 μM PLP, 75 mM L-serine, 1 mM indole; hyperbolic fit; duplicates"}, "[2]": {"target": "plTrpB‐con, plTrpB with the six LBCA-Res6 residues replaced by consensus residues (Pelodictyon luteolum)", "test": "activity titration; apparent Kd; varying plTrpA added to 2 μM plTrpB or plTrpB-con, TrpB reaction rate read at 290 nm; 30°C, 50 mM potassium phosphate pH 7.5, 180 mM KCl, 40 μM PLP, 75 mM L-serine, 1 mM indole; hyperbolic fit; duplicates"}, "[3]": {"target": "plTrpB, tryptophan synthase β subunit (TrpB) from Pelodictyon luteolum (Pelodictyon luteolum)"}, "[4]": {"target": "plTrpB, tryptophan synthase β subunit (TrpB) from Pelodictyon luteolum (Pelodictyon luteolum)", "remark": "listed apart in the source"}, "[5]": {"target": "plTrpB‐con, plTrpB with the six LBCA-Res6 residues replaced by consensus residues (Pelodictyon luteolum)"}, "[6]": {"target": "plTrpB‐con, plTrpB with the six LBCA-Res6 residues replaced by consensus residues (Pelodictyon luteolum)", "remark": "listed apart in the source"}, "[7]": {"target": "plTrpB, tryptophan synthase β subunit (TrpB) from Pelodictyon luteolum (Pelodictyon luteolum)", "test": "SEC; analytical SEC, Superdex200 increase 10/300 GL; plTrpA 75 μM, plTrpB or plTrpB-con 50 μM, alone or mixed; 50 mM potassium phosphate pH 7.5, 300 mM KCl, 75 mM L-serine, 25°C"}, "purified protein": {"substrate": "c1ccc2[nH]ccc2c1", "test": "purified protein", "assay_type": "biochemical, Pelodictyon luteolum", "settings": "saturating L-serine, 50 mM potassium phosphate pH 7.5, 180 mM KCl, 40 μM PLP, 30°C"}, "[8]": {"settings": "1.5-fold molar excess of plTrpA"}}, "data": [{"molecule": "plTrpA, tryptophan synthase α subunit (TrpA) from Pelodictyon luteolum (from UniProt A0A1G7SSP5 1-275) (enzyme)", "values": [{"measurement": "Kd", "setting": "[1]", "value": 8.5, "unit": "µM"}, {"measurement": "Kd", "setting": "[2]", "value": 9.9, "unit": "µM"}, {"measurement": "fold activation of k cat of plTrpB by plTrpA", "setting": "[3]", "value": 2.7, "unit": "fold"}, {"measurement": "fold activation of k cat/K M ^Ind of plTrpB by plTrpA", "setting": "[3]", "value": 1.6, "unit": "fold"}, {"measurement": "fold activation of k cat/K M ^Ser of plTrpB by plTrpA", "setting": "[3]", "value": 9.8, "unit": "fold"}, {"measurement": "k cat of the TrpB reaction of plTrpB with a 1.5-fold molar excess of plTrpA, 30°C", "setting": "[4]", "value": 0.93, "unit": "s⁻¹"}, {"measurement": "k cat of the TrpB reaction of plTrpB-con with a 1.5-fold molar excess of plTrpA, 30°C", "setting": "[5]", "value": 0.21, "unit": "s⁻¹"}, {"measurement": "fold activation of k cat of plTrpB-con by plTrpA", "setting": "[6]", "value": 23, "unit": "fold"}, {"measurement": "fold activation of k cat/K M ^Ind of plTrpB-con by plTrpA", "setting": "[6]", "value": 3.6, "unit": "fold"}, {"measurement": "fold activation of k cat/K M ^Ser of plTrpB-con by plTrpA", "setting": "[6]", "value": "> 10000", "unit": "fold"}]}, {"molecule": "plTrpB, tryptophan synthase β subunit (TrpB) from Pelodictyon luteolum (from UniProt A0A1G7SST0 1-406) (enzyme)", "values": [{"measurement": "stoichiometry N", "setting": "[7]", "value": 2}]}, {"molecule": "plTrpB (Pelodictyon luteolum DSM 273) (protein, full-length, C-terminal His6-tag kept, codon-optimized gene in pET21a, E. coli BL21 Gold (DE3); beta-beta dimer) MSTTAYSAPDSAGKFGAFGGRFTPETLMQNAAGLEAEYLKAKSDPEFQRTLEGLLGDYVGRPTPLYHAEGLSGMLGGAEVWLKREDLCHTGAHKINNALGQVLLARRMGKRRVIAETGAGQHGVATATVCALFNLQCVVYMGEEDIRRQAPNVARMKLLGAEVRPVSSGSRTLKDATSEAIRDWMNNPEETFYIIGSVVGMHPYPMIVRDFQAVIGRETRRQILDKAGRLPDVITACIGGGSNAVGMFYDFLPDAGSIELIGVEAAGEGLDRRHAASLTMGSPGVLHGAMTMLLQNEDGQIQEAHSISAGLDYPGVGPEHCHLQELGLVKYTSVTDADALSALRTLAETEGIICALESAHAVRYAITRAPEMAKDKIIIVNLSGRGDKDMGTIMEELNL", "values": [{"measurement": "Km", "setting": "purified protein; no plTrpA", "value": "39 ± 7", "unit": "µM"}, {"measurement": "kcat", "setting": "purified protein; no plTrpA", "value": "0.35 ± 0.02", "unit": "s⁻¹"}, {"measurement": "kcat/Km", "setting": "purified protein; no plTrpA", "value": "8970 ± 1720", "unit": "M⁻¹ s⁻¹"}]}, {"molecule": "plTrpA:plTrpB (Pelodictyon luteolum DSM 273) (protein, both full-length with C-terminal His6-tag, E. coli BL21 Gold (DE3); alpha-beta-beta-alpha complex, partly formed; with Tryptophan synthase alpha chain) MSTTAYSAPDSAGKFGAFGGRFTPETLMQNAAGLEAEYLKAKSDPEFQRTLEGLLGDYVGRPTPLYHAEGLSGMLGGAEVWLKREDLCHTGAHKINNALGQVLLARRMGKRRVIAETGAGQHGVATATVCALFNLQCVVYMGEEDIRRQAPNVARMKLLGAEVRPVSSGSRTLKDATSEAIRDWMNNPEETFYIIGSVVGMHPYPMIVRDFQAVIGRETRRQILDKAGRLPDVITACIGGGSNAVGMFYDFLPDAGSIELIGVEAAGEGLDRRHAASLTMGSPGVLHGAMTMLLQNEDGQIQEAHSISAGLDYPGVGPEHCHLQELGLVKYTSVTDADALSALRTLAETEGIICALESAHAVRYAITRAPEMAKDKIIIVNLSGRGDKDMGTIMEELNL", "values": [{"measurement": "Km", "setting": "purified protein; [8]", "value": "65 ± 7", "unit": "µM"}, {"measurement": "kcat", "setting": "purified protein; [8]", "value": "0.93 ± 0.21", "unit": "s⁻¹"}, {"measurement": "kcat/Km", "setting": "purified protein; [8]", "value": "14300 ± 3510", "unit": "M⁻¹ s⁻¹"}]}]}
